Measurements as given in patent publication US20210292393A1.

Target: SARS-CoV-2 full length spike protein, V483A mutant (SARS-CoV-2), P0DTC2
Settings: remark: other sources report otherwise

B1: antibody 262 (antibody, V domains shown)
VH: QVQLVESGGGVVQPGRSLRLSCAASGFTFSSYAMHWVRQAPGKGLEWVAVISYDGSNKYYADSVKGRFTISRDNSKNTLYLQMNSLRAEDTAVYYCARDGGELLWFGELDYYGMDVWGQGTTVTVSS
VL: SYELTQPSSVSVSPGQTARITCSGDVLAKKYARWFQQKPGQAPVLVIYKDSERPSGIPERFSGSSSGTTVTLTISGAQVEDEADYYCYSAADNNRGVFGGGTKLTVL
**Q.** How did the median fluorescence intensity, fold over isotype control (fold over isotype) turn out when B1 was run?
**A.** 1.63
